Assay: label from the status in PepcDB records

**Q.** With “MAIHVGIIDQDPVRLVTPLLDHRTVSRHIIFIGDHTQTVIYQRLSDVLNKRNISTDFFEIPAGSNTSAIKSAIRELAETLKARGEEVKFNASCGLRHRLLSAYEVFRSYHWPIFVVEPNSDCLCWLYPEGNNDTQVQDRITIADYLTIFGARGEFNEHQLSPQLDQQLYQLGERWASNALELGPGLATLNYLATTCRKEQKLDVELSDKQQGYRELNLLLSDLVEAKIASYENGILTFINEEARRFANGEWLETLVHSTVKQIQDDMPTIQDRSLNVQVYRQLGEREVRNELDVATVVNNKLHIIECKTKGMRDDGDDTLYKLESLRDLLGGLQARAMLVSFRPLRHNDITRAEDLGLALIGPDELKDLKTHLTQWFKAAGGN” as the sequence, how does the protein production read?
**A.** not failed

**Q.** With “MAIKITPDEFSLLIQRLNKKWRVFAPSAEFRGGRFSDTDNIIYQRISGWRDLIWHEKSHMSPNTIIAPITETLFYFDKDTIQIAETDTSPIIIFARACDINAMSRLDYMYLSNGNNSDYSYQLLREHIRFVLIECEKSFENCFCVSMGTNKTDCYSAAMRFSDEGALVSIRDPFIEAAIQGLGQEADYTPSFVSENRETVVTPDSVCRDPQKIRDILTRHPLWDAYDSRCISCGRCTTGCPTCTCYSVFDVAYDENPQRGERRRQWASCMVPGFSDMAGGHGFREKPGERLRYRALHKVNDYKARNGIEHMCVGCGRCDDRCPQYIKFSLIINKMTAAVRQALAEEA” as the sequence, how does the protein production read?
**A.** failed

**Q.** For “MAIKSISSSLLTRVLSVYFLLTLIVTAIQIGAEYFDTKRVLIAELQNQQSTFNGSLTRSLWEFNSNQIDTIADGLISIPAIAGVLIRDDAGNILVQLGETTEMSDLPDDNSEGALLPERNGIFGYYDSLIFEFSGHSTKVGDVSLFSTRDIAIDRIKVSLGFIIGNAIIKSIFLIVLFTIAFNRMLNRPLSDLTQQIKGFRLDNLERSRIRLDDQHNNELVLVEQAYNQLLDNIEEYQSDLDRTQKKLKAANRQLDEQNAILEQEVARKTSSLSQVMLDLEQRKNELEMRQEKLEREVGQRRAIENTLRQSNQRLESSLNNLRETQQQLIESEKMASLGGLVAGITHDVNTPIGISVTASSYLREKLDTLDQSLLNKELTQTQLKKFIEEGRESLNLLDSNLHRASDLISSFKQVAVDQASDAIRDINLKSYIEDLVQSLQPHLKKTNHQVRLECADDIFIRCPAGALSQIFTNLILNSLRHAFDGISEGLMIISIRLDGETLQVHYSDNGNGLSEAQLKRLFDPFFTTKRDQGGSGLGTHIVRNLVTQTLSGEISAESEPGKGLSYFFSFSVQVLN”, which protein production is on record?
**A.** failed

**Q.** For “MAILLALIPIMMIFICLFLFKQTSLRSSLIAYVVSVGIVLLSPMFQLGISETVHATIKGSLICFIVGYVLFFGIFLFHLMNKMGYIDQVARFLEEVTHDRLLQMLLMCFGICPLIESVSGFGIGFMVAAPIFLSLGYKPFQAVLLSFIGLLASSWGAMATGTIIGSQLINMPLTTLGTNTALLSIPMFAYFVILSLHVVGGWQAVIEKWKEGIGFFLLFSLGIYLSNAYVSVELAGILSSIVTITFGFLIIKLKGKSEQNLMSEHAAATEREVSIIKIISPYIFLTVCILLSRLVPALHDVFRSYAVLDLKSFSYKLEMLYSPGFWLGMTCLFTIIFFRIPSNIIKQSLSQTIKQWIPFAITTTMFIAISELMGASGMHSLLAKTAGETFGTFFVFVAPFIGGIGGFLTGSNAGSNAMFIKLQMQTAQNVALPWQYVTTLQNTASSVATIACPSRITLGAYLCNIPYRENELLKKTTLMIFGAVLLIVVEVIFWYMLRN”, which protein production is on record?
**A.** failed

**Q.** For “MAINLNDYKRVAQNLKVNKKNMREFLFDFRVNGKRYRKVETLIERTGWNKKDYEREAQLLLIDYRKKVEANTGNLQITSNTRLNELWELYFQTLDKSTSWTFTKESFYNRYLKEPLGKKKLDSIQEHHIMAIIRHLQAEGMATRTVNTTLEILRPLFDFAIKNKALRDNPTRFIVLKKDNTKKIVINGAEMFKRIFEGINDYYSSQPFYRALFLFGFTGRRKGEILKLKWENIDLDNNYYWIEDTKNNEKQKYELPHFIKEALLQIQDTHTGLVFKSPVTGRMLENTDGQMNKLKKHLNMPELTLHYMRNVLVSALAERGTEAITLSGMLGHRDATTINKYLSLSYHNSSKKGNATMGQIIDAEVVE”, which protein production is on record?
**A.** failed

**Q.** With “MAIQLKKGNRISLKKEAPGLKKVMLGLGWDMATSSSGGGFFGIFKKPAGSIDLDSGVLCLDSQGKLNSASDFVYYANLNHKSGAIAHQGDNLTGAGEGDDEQIFVDLEQVPATIQSLLFTVTIYQGRQRGQEFGQIKNAFVRLVDLSNNQEIAHYKLSGETYQGKTGMLMAELRREENGWAMTALGDGLDPQDSENLLKKYR” as the sequence, how does the protein production read?
**A.** failed

**Q.** For “MAIQVKASLRKNPQDKKAAGKYYAQVVLAPEMTQRQIIDQIADRCTVTGSDVKAVLDALMTVIKRNLANGSPIRLGDLGSFRPSVSGIGSENVDKFTASNVKKARVIYVPSAEIKEAVAMYAFSKVGATAEGGNTEKPGGGDIDNPGGGDEEAPDPTVLEHHHHHH”, which protein production is on record?
**A.** not failed

**Q.** For “MAKAFEEQRRSPDLEALPFEDRIGLLVDREAAERDTRRLTTRLKIAALRQTACVEDVDLRTPRGIDRAVFAKLVEGRWIDRHENLLVTGATGLGKSWLACALGHKACRDNRSVLYHRVPRLFEALALARGDGRYARLLKSLGRAQLLILDDWGLSVLTAAERRDLLEILEDRHGRASTIVTSQLPWTPGMEPLGTPRSPTPFSIASSTTPTASSSPEKACENAAPKPSPLTANQNTDSISHRPLEHHHHHH”, which protein production is on record?
**A.** failed

**Q.** For “MAKAISAPITFAIILVIGILLLIPFLTYVTYLSQSNQISQAQFNNYIYLKNLEQQRAVSGRPGVYYNGSSLFILYSNGTFVPNASIVVVGILYLNNLGVWQNITSLKYPIILNRTGSVNLPSNVAGKPIILVTSLGNIFFLQPGSSIGPYSNSIGKGGVTIISQIYTSSQIYSTSINITTNINGKFSNYTTPITFPNQTGTFQVKAREYIYYINSKTGKVITGVFSNWQILGSATVNSTTTQGITVTLQGKPVILIANYSQLVQSVNLSIKTNANFSIVVNINGVNYTVNNHALSATVPAGYVNFTVYTLQGNDTSSMSSGIIKHYKFNTINYTGNTYVTNSQLLFLPPNSLPYVQINYVNDYNYYKVFLYDYYDSPPPPGGGLVVILNGTEYNYNNTYGYWIIGGNYSFVPTGIFNGSMSYEAKEVTIAGNNGILNYYFPDIPSYIIINQPMTITVYYDYVIKWVPI”, which protein production is on record?
**A.** failed

**Q.** With “MAKASSPTDTGKQKVRSAEVGTDILKALAELSPSTSLSRLAEHVQMPASKVHRYLQALIASGFAEQDAATNHYGLGREALRVGLAALGSIDVLKVAAMPLSQLRDELNESCFIAVWGNQGATVVSIEPAVRAVTVVTQIGSVLPLLSSSTGLVFAAYLPERETQELRDRELAALQQTASDYHTLLAGIREKGLHHVHGLLMPGVDALSAPVFNAMGQIAAVMTVVGPTSIFHADEHGPAAQSLLTAARTVSWRMGYAGNPHCASTSSVSSSTSQSSS” as the sequence, how does the protein production read?
**A.** failed

**Q.** With “MAKAVRIGAEGYKLKLDGAVQEIDGRSVVLVDVDSITPLMFGGSMKEKAKLLDAKFLRKYYEENKDFFFLSTREEKKMFVTLQLAREYAELVDDQFLRGFFEKALESAQKAF” as the sequence, how does the protein production read?
**A.** not failed

**Q.** Which protein production does the source give for “MAKHAILVIDMLNDFVGEKAPLRCPGGETIIPDLQKIFEWVRGREGDDIHLVHIQEAHRKNDADFRVRPLHAVKGTWGSDFIPELYPQEDEYIVQKRRHSGFAHTDLDLYLKEEGIDTVVLTGVWTNVCVRSTATDALANAYKVITLSDGTASKTEEMHEYGLNDLSIFTKVMTVDQYIQAWENDEDPWVGGGDAQNKVK” here?
**A.** not failed

**Q.** With “MAKHVIIGAGSIGTNVARLLAEGGESVRIVTRSGSGPEHPLVDRVAADASDPSRLTELSRGAGVIYHCANPPSYTVWERLLPPLQTAAITAAKANDAVLALTGSLYAYGPQPGGRMNEHTPMAATGHKGRLRRRMWEQALAGGIRTVEVRGSDYIGKDANGIYSLLIKSALQKGKAAWITGHLDMPHTFTFNGDMAQALITLASEERAWGRPWHVPSAPAVTIRELARRYAVAAGRPPIKLIQIPRSVTRTAGLIVPIAREMAEMDYQWYAPFHMDATETTETFGLTATDLDTAVRNEVG” as the sequence, how does the protein production read?
**A.** failed

**Q.** With “MAKILEGPAMKLFNKWGIPVPNYVVIMDPKRLAQLGEANKWLRESKLVVKAHEAIGGRFKLGLVKIGLNLDEAIQASREMLGAKVGTAEVRQVIVAEMLDHDAEFYVSIIGNRDGAELLISKYGGVDIEDNWDSVRRIQIPLDEHPTIEQLTALAKEAGFEGEIAERVGKICSRLVLCFDNEDAQSIEINPLVIRKSDMRFAALDAVMNVDWDARFRHADWDFKPVSEIGRPFTEAEQQIMDIDSRIKGSVKFVEVPGGEIALLTAGGGASVFYADAVVARGGTIANYAEYSGDPPDWAVEALTETICRLPNIKHIIVGGAIANFTDVKATFSGIINGLRESKSKGYLEGVKIWVRRGGPNEAQGLAAIRKLQEEGFDIHVYDRSMPMTDIVDLALKS” as the sequence, how does the protein production read?
**A.** not failed

**Q.** With “MAKKRGKPEIDWTDDDKEIIWVSKSEIKRDSEHLKKLGAELIELTPQNLEKIPLDEDLKYAIRQAQSFKLEARRRQIQFIGKLLRNRDSAPIQDALDKVKNRHNQQQALLHKLELIRDQLINMGDASLNQLLSEYPQLDRQHLRNLIRMAQKEKQINKPAKNYHEILQYLKSELIV” as the sequence, how does the protein production read?
**A.** not failed

**Q.** For “MAKKRITLPQNFDELITAGDVEALKAVYDKCELTAHNGRYSLNTALHYGGVPDELVIWLVEQGLDVNTLDYYGRTPLYKHATLGRDTVKLLYELGGDIQKPDTYGSTPLHTAAGFFRPKIVSFLIEKDADVNAKNDMGRTPLAEALATCRNSNVVQAAEIAEMLIKAGAEVVPEMAERVEIIGKDFEFHRENFNKDSLAETEAGLEKLYALFDVKPAPKRKIHDGVSPIIVKTGSWKEQYDELWEMLIPSSGAAKTVQGEVIRITGRVQDELYRNGGVNWDKDYRNMLNSLPNHFASGTPLSEEELKETKELISNIRANGEDEEVITERLRELSVLWVLLNPTPILLGKTNYNR”, which protein production is on record?
**A.** failed

**Q.** For “MAKLRHSRFQARKWSTLMLVLFMLFMLTIVLLMLLAFGVFSLPINNDESSPIDLSYFRRAATERSEGLGKRGDQWTEVLSWEPRAFVYHNFLSKEECEYLISLAKPHMVKSTVVDSETGKSKDSRVRTSSGTFLRRGRDKIIKTIEKRIADYTFIPADHGEGLQVLHYEAGQKYEPHYDYFVDEFNTKNGGQRMATMLMYLSDVEEGGETVFPAANMNFSSVPWYNELSECGKKGLSVKPRMGDALLFWSMRPDATLDPTSLHGGCPVIRGNKWSSTKWMHVGEYKI”, which protein production is on record?
**A.** failed

**Q.** For “MAKLSRKERHRLLLQKIKENPFITDEELAEEFGCSVQTIRLDRAILDIKEVRERIKEMAKESLGKLKTISPRDVVGEIIDIELGSYAIATFEPELWMTFSNSQMVKGQHIYAFAESIAMSVIDAKAALIGIANIKYKTPVFANDRLVARAELKKKRNNKYIVWVFIKRNNEEVFRGKFILVAIDDENKETGQTGV”, which protein production is on record?
**A.** failed

**Q.** Which protein production does the source give for “MAKNKLLRMDNVSIVVESLDNAISFFEEIGLNLEGRANVEGEWAGRVTGLGSQCVEIAMMVTPDGHSRIELSRFLTPPTIADHRTAPVNALGYLRVMFTVEDIDEMVSRLTKHGAELVGEVVQYENSYRLCYIRGVEGILIGLAEELGNK” here?
**A.** not failed

**Q.** For “MAKNQSGSIFNTKVTIKYDKEKIIKLSSEMFSEDLCIQCGRCCMIHVYTTDEKIDPEIVYCNHLDVETKRCKIYKNRFNKEKECLSMLEAILTSALPKDCPYVKNYPSYEEPWFYGLLRGKNLK”, which protein production is on record?
**A.** failed
